Test results taken from the nanobody polyreactivity screen of Harvey et al. (2022).

Test: yeast display, Sf9 membrane polyspecificity reagent, FACS + sequencing; frameworks hold sequencing errors
Procedure, shortened: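 A nanobody's polyreactivity label depends on the gate it was sorted from. Yeast display cells were stained with 10% biotinylated, detergent-solubilized Sf9 membrane reagent for 1 hour at 4 °C, enriched on streptavidin microbeads and sorted by FACS. The low and high (top ~1%) gates were set on anti-HA fluorescence for expression and streptavidin fluorescence for reagent binding.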

Sequence: QVQLVESGGGLVQAGGSLRLSCAASGSIFKVNAMGWYRQAPGKEWELVARTYYADSVKGRFTISRDNAKNTVYLQMNSLKPEDTAVYYCAASRGIYNPYDYWGQGTQVTVSS
- polyreactivity (PSR sort gate): low polyreactivity

Sequence: QVQLVESGGGLVQAGGSLRLSCAASGSIFKVYAMGWYRQAPGKERELVATISGSGGSTYYADSVKGRFTISRDNAKNTVYLQMNSLKPEDTAVYYCAAEVYVPDYFQHKFDVEYEYWGQGTQVTVSS
- polyreactivity (PSR sort gate): low polyreactivity

Sequence: QVQLVESGGGLVQAGGSLRLSCAASGSIFKWNAMGWYRQAPGKEWELVAAITWSGGRTYYADSVKGRFTISRDNAKNTVYLQMNSLKPEDTAVYYCAATQYRSDGWRYDYWGQGTQVTVSS
- polyreactivity (PSR sort gate): high polyreactivity

Sequence: QVQLVESGGGLVQAGGSLRLSCAASGSIFKWYTMGWYRQAPGKERELVAAITWGGGSTYYADSVKGRFTISRDNAKNTVYLQMNSLKPEDTAVYYCNAEYVVADYGYYTIEFDYWGQGTQVTVSS
- polyreactivity (PSR sort gate): low polyreactivity

Sequence: QVQLVESGGGLVQAGGSLRLSCAASGSIFKYNDMGWYRQAPGKERELVAAIRLGGGSTSYADSVKGRFTISRDNAKNTVYLQMNSLKPEDTAVYYCAAEINVGWLGSYDYWGQGTQVTVSS
- polyreactivity (PSR sort gate): low polyreactivity

Sequence: QVQLVESGGGLVQAGGSLRLSCAASGSIFKYYAMGWYRQAPGKERELVAAISRSGTSTYYADSVKGRFTISRDNAKNTVYLQMNSLKPEDTAVYYCNAVGISQFAKYGWRYDYWGQGTQVTVSS
- polyreactivity (PSR sort gate): high polyreactivity

Sequence: QVQLVESGGGLVQAGGSLRLSCAASGSIFKYYAMGWYRQAPGKERELVAAISSGGITNYADSVKGRFTISRDNAKNTVYLQMNSLKPEDTAVYYCAARDYVRLGLYDYDYWGQGTQVTVSS
- polyreactivity (PSR sort gate): low polyreactivity

Sequence: QVQLVESGGGLVQAGGSLRLSCAASGSIFKYYAMGWYRQAPGKERELVAAISSSGGSTYYADSVKWRFTISRDNAKNTVYLQMNSLKPEDTAVYYCNTPYIWKNYDYWGQGTQVTVSS
- polyreactivity (PSR sort gate): high polyreactivity

Sequence: QVQLVESGGGLVQAGGSLRLSCAASGSIFKYYAMGWYRQAPGKERELVAAITSGVSTYADSVKGPFTISRDNAKNTVYLQMNSLKPEDTAVYYCAVRVTGPRGDYWGQGTQVTVSS
- polyreactivity (PSR sort gate): low polyreactivity

Sequence: QVQLVESGGGLVQAGGSLRLSCAASGSIFKYYAMGWYRQAPGKERELVAAITWSGTRTYYADSVKGRFTISRDNAKNTVYLQMNSLKPEDTAVYYCNAPRYLYSAGRFNYWGQGTQVTVSS
- polyreactivity (PSR sort gate): high polyreactivity

Sequence: QVQLVESGGGLVQAGGSLRLSCAASGSIFKYYTMGWYRQAPGKERELVASINGGGSTNYADSVKGRFTISRDNAKNTVYLQMNSLKPEDTAVYYCNARYWWQDGYWGQGTQVTVSS
- polyreactivity (PSR sort gate): high polyreactivity

Sequence: QVQLVESGGGLVQAGGSLRLSCAASGSIFKYYVMGWYRQAPGKEREFVAVISWSGGTTYYADSVKGRFTISRDNAKNTVYLQMNSLKPEDTAVYDCNKDYIYVGVPRYRSINHDYWGQGTQVTVSS
- polyreactivity (PSR sort gate): low polyreactivity

Sequence: QVQLVESGGGLVQAGGSLRLSCAASGSIFKYYVMGWYRQAPGKERELVAAITRGGRTYYADSVKGRFTISRDNAKNTVYLQMNSLKPEDTAVYYCARSLQTTSGIIPYDYWGQGTQVTVSS
- polyreactivity (PSR sort gate): high polyreactivity

Sequence: QVQLVESGGGLVQAGGSLRLSCAASGSIFLDNAMGWYRQAPGKERELVAAISRRGGTTYYADSVKGRFTISRDNAKNTVYLQMNSLKPEDTAVYYCAARYPGGKYYSYTYNYWGQGTQVTVSS
- polyreactivity (PSR sort gate): high polyreactivity

Sequence: QVQLVESGGGLVQAGGSLRLSCAASGSIFLDYAMGWYRQAPGKERELVAAITSGGSTYYADSVKGRFTISRDNAKNTVYLQMNSLKPEDTAVYYCNDEYPQYKAGFYGYDYWGQGTQVTVSS
- polyreactivity (PSR sort gate): low polyreactivity

Sequence: QVQLVESGGGLVQAGGSLRLSCAASGSIFLDYAMGWYRQAPGKERELVAGITISGGSTYYADSVKGRFTISRDNAKNTVYLQMNSLKPEDTAVYYCAKVAPRSSSSQEYYYWGQGTQVTVSS
- polyreactivity (PSR sort gate): low polyreactivity

Sequence: QVQLVESGGGLVQAGGSLRLSCAASGSIFLENTMGWYRQAPGKERELVAAITSSGDSTYADSVKGRFTISRDNAKNTVYLQMNSLKPEDTAVYYCAQYTRDIFAVTFYEGEDYWGQGTQVTVSS
- polyreactivity (PSR sort gate): low polyreactivity

Sequence: QVQLVESGGGLVQAGGSLRLSCAASGSIFLEYTMGWYRQAPGKERELVASISWGGGSTYYADSVKGRFTISRDNAKNTVFLQMNSLKPEDTAVYYCNKVGGDPVRGGYDYWGQGTQVTVSS
- polyreactivity (PSR sort gate): low polyreactivity

Sequence: QVQLVESGGGLVQAGGSLRLSCAASGSIFLGNSMGWYRQAPGKERELVAAISSITGRTYYADSVKGRFTISRDNAKNTVYLQMNSLKPEDTAVYYCNKVKRSFIVNTDDYWGQGTQVTVSS
- polyreactivity (PSR sort gate): high polyreactivity

Sequence: QVQLVESGGGLVQAGGSLRLSCAASGSIFLIYAMGWYRQAPGKERELVAAISSGGSTYYADSVKGRFTISRDNAKNTVYLQINSLKPEDTAVYYCATYSTSVAYHLYYWGQGTQVTVSS
- polyreactivity (PSR sort gate): low polyreactivity

Sequence: QVQLVESGGGLVQAGGSLRLSCAASGSIFLLYAMGWYRQAPGKERELVARISWSGDNTRYADSVKGRFTISPDNAKNTVYLQMNSLKPEDTAVYYCNAYFFYGQWKGYDYWGQGTQVTVSS
- polyreactivity (PSR sort gate): low polyreactivity

Sequence: QVQLVESGGGLVQAGGSLRLSCAASGSIFLLYYMGWYRQAPGKERELVAANTWSGGSTYYADSVKGRFTISRDNAKNSVYLQMNSLKPEDTAVYYFAADEPYPTAYEYWGQGTQVTLSS
- polyreactivity (PSR sort gate): low polyreactivity

Sequence: QVQLVESGGGLVQAGGSLRLSCAASGSIFLPYAMGWSRQAPGTEREFVAAIRWSTGRTFYADSVKGRFTISRDNAKNTVYLQMNSLKPEDTAVYYCAAKYYDSWYTYRYDYWGQGTQVTVSS
- polyreactivity (PSR sort gate): high polyreactivity

Sequence: QVQLVESGGGLVQAGGSLRLSCAASGSIFLRNAMGWYRQAPGKERELVAAITSNGGRTYYADSVKGRFTISRDNAKNTVYLQMNSLKPEDTAVYYCARVTRLGGGDYDYWGQGTQVTVSS
- polyreactivity (PSR sort gate): high polyreactivity

Sequence: QVQLVESGGGLVQAGGSLRLSCAASGSIFLRYAMGWYRQAPGKESELVARISWSGGSTYYADSVKGRFTISRDNAKNTVYLQMNSLKPEDTAVYYCAAGFRAYGELDYWGQGTQVTVSS
- polyreactivity (PSR sort gate): low polyreactivity

Sequence: QVQLVESGGGLVQAGGSLRLSCAASGSIFLSNAMGWSRQAPGKERELVADIDWTGGDTYYADSVKGRFTISRDNAKNTVYLQMNSLKPEDTAVYYCAADYGYRNLLTEYGYWGQGTQVTVSS
- polyreactivity (PSR sort gate): low polyreactivity

Sequence: QVQLVESGGGLVQAGGSLRLSCAASGSIFLSYAMGWYRQAPGKERELVAAITGSGGSTYYADSVKGRFTISRDNAKNTVYLQMNSLKPEDTAVYYCARRRHHVIWYGYWGQGTQVTVSS
- polyreactivity (PSR sort gate): low polyreactivity

Sequence: QVQLVESGGGLVQAGGSLRLSCAASGSIFLSYGMGRYRQAPGKERELVATITWSGGSTTYADSVKGRFTISRDNAKNTVYLQMNSLKPEDTAVYYCIALYDVWITLLTYTSSDYWGQGTQVTVSS
- polyreactivity (PSR sort gate): low polyreactivity

Sequence: QVQLVESGGGLVQAGGSLRLSCAASGSIFLTYAMGWYRKAPGKERELVAAISGGGNTYYADSVKGRFTISRDNAKNTVYLQKNSLKPEDTAVYYCNAVPHIYAEGTAYNYWGQGTQVTVSS
- polyreactivity (PSR sort gate): low polyreactivity

Sequence: QVQLVESGGGLVQAGGSLRLSCAASGSIFLTYDMGWYRQAPGKERELVAAITGSGDSTYYADSVKGRFTISRDNAKNTVYLQMNSLKPEDNAVYYCNADGPSTPWVDYGYWGQGTQVTVSS
- polyreactivity (PSR sort gate): low polyreactivity

Sequence: QVQLVESGGGLVQAGGSLRLSCAASGSIFLVNAMGWYRQAPGKERELVAAISWGGGSTYYADSVKGRFTISRDNAKNTVYVQMNSLKPEDTAVYYCAAESYYYIRYFDYSRWMGYWGQGTQVTVSS
- polyreactivity (PSR sort gate): low polyreactivity

Sequence: QVQLVESGGGLVQAGGSLRLSCAASGSIFLVNAMGWYRQAPGKERELVAIDGSGGSTYADSVKGRFTISRDNAMNTVYLQMNILKPEDTAVYYCAKDQEGPLYDYWGQGTQVTVSS
- polyreactivity (PSR sort gate): low polyreactivity

Sequence: QVQLVESGGGLVQAGGSLRLSCAASGSIFLVTAMGWYRQAPGKERELVAAITFGGDSTYYADSVKGRFTISRDNAKNTVYLQMNSLKPEDTAVYYCAADPSPYGDEYDYWGQGTQVTVSS
- polyreactivity (PSR sort gate): low polyreactivity

Sequence: QVQLVESGGGLVQAGGSLRLSCAASGSIFLYARGWYRQAPGKERELVAAINRRGGSTYYADSVKGRFTISRDNAKNTVYLQMNSLKPEDTAVYYCAVVYLLPRYWWRYDYWGQGTQVTVSS
- polyreactivity (PSR sort gate): low polyreactivity

Sequence: QVQLVESGGGLVQAGGSLRLSCAASGSIFLYKAMGWYRQAPGKERELVADITSRGGSTYYADSVKGRFTISRDNAKNTVYLQMTSLKPEDTAVYDCNAVSRYVYGNGKNYYWGQGTHVTVSS
- polyreactivity (PSR sort gate): high polyreactivity

Sequence: QVQLVESGGGLVQAGGSLRLSCAASGSIFLYNAMGWYRQAPGKERELVAAIRGSDGITFYADSVKGRFTISRDNAKNTVYLQMNSLKPEDTAVYYCAKDTYRSPRHDYGYWGQGTQVTVSS
- polyreactivity (PSR sort gate): low polyreactivity

Sequence: QVQLVESGGGLVQAGGSLRLSCAASGSIFLYNAMGWYRQAPGKERELVAAISRSSTSTYYSDSVKGRFTISRDNAKNTVYLQMNSLKPEDTAVYYCAARGRVTYWGQGTQVTVSS
- polyreactivity (PSR sort gate): high polyreactivity

Sequence: QVQLVESGGGLVQAGGSLRLSCAASGSIFLYYVMGWYRQAPGKERELVAAITWDGGSTYYADSVKGRFTISRDNAKNTVYLQMNSLKPEDTAVYYCNKDTTYSYYTEPYDYWGQGTQVTVSS
- polyreactivity (PSR sort gate): low polyreactivity

Sequence: QVQLVESGGGLVQAGGSLRLSCAASGSIFNANAMGWYRQAPGKERELVAGIRSGSSTNYADSVKGRFTISRDNAKNTVYFQMNSLKPEDTAVYYCATEGYWVYGFDDEDWGQGTQVTVSS
- polyreactivity (PSR sort gate): low polyreactivity

Sequence: QVQLVESGGGLVQAGGSLRLSCAASGSIFNGNARGWYRQAPGKERELVAAITRRGGRTYYADSVKGRFTISRDNEKNTVYLQMNSLQPEDTAFYYCATPVDYKTGYYYWVQGTQVTVSS
- polyreactivity (PSR sort gate): high polyreactivity

Sequence: QVQLVESGGGLVQAGGSLRLSCAASGSIFNGYAMGWYRQSPGKERELVAVISGSGGSTYYADSVKGRFTISRDNAKNTVYLQMNSLKPEDTAVYYCAAKPGYYGYWGQGTQVTVSS
- polyreactivity (PSR sort gate): high polyreactivity

Sequence: QVQLVESGGGLVQAGGSLRLSCAASGSIFNINAMGWYRQAPGKERELVAAITTSGGRTYYADSVKGRFTISRDNAKNTVYLQMNSLKPEVTAVYYCATSHYGSTGNYWGQGTQVTVSS
- polyreactivity (PSR sort gate): low polyreactivity

Sequence: QVQLVESGGGLVQAGGSLRLSCAASGSIFNINAMGWYRQAPGKESELVATITSGGTTSYADSVKGRFTISRDNAKNTVYLQMNSLKPEDTAVYYCNAEIYPIVKAGLQHPRRYDYWGQGTQVTVSS
- polyreactivity (PSR sort gate): low polyreactivity
